Laboratory results reported in patent publication US20040180342, “Multimers of S. solfataricus single-stranded DNA-binding protein and methods of use thereof” (REGENTS OF THE UNIVERSITY OF CALIFORNIA, published 2004).

B1: 63-mer oligonucleotide (ssDNA)
DNA: ACAGCACCAATGAAATCTATTAAGCTCCTCATCGTCCGCAAAAATATCGTCACCTCAAAAGGA

Legend:
[1] = target: T1, SsoSSB (S. solfataricus SSB, SSO2364) (Sulfolobus solfataricus, UniProt Q97W73 SEQ:1-148); experiment: competition; conditions: linear pUC19 at 100-fold molar (nucleotide) excess did not alter shift of 63-mer; 75 C
T1 sequence: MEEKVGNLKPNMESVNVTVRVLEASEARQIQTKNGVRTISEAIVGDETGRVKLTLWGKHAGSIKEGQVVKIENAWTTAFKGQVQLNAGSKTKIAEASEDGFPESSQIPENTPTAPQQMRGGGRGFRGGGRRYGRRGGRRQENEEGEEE

[2] = target: T1, SsoSSB (S. solfataricus SSB, SSO2364); experiment: EMSA; 10 uM nucleotides, constant mobility reached at 2 uM protein; saturation about 1 SSB per 5 nt; non-cooperative; 75 C, 30 mM Tris OAc pH 7.5, 10 mM MgOAc2, 5 mM; conditions: tags: untagged, expressed from pET21a in E. coli, heat treated at 80 C; chain copies: 4 (tetramer main form in solution; dimer and monomer also present); label: 5'-32P (T4 polynucleotide kinase end label)
Protocol: To determine the occluded binding site size of the protein and to evaluate the activity of the SsoSSB protein, we performed acrylamide gel mobility-shift assays with a radioactively labeled single-stranded oligonucleotide that was 63 nucleotides in length (FIG. 5). When a fixed quantity of radiolabeled oligonucleotide was incubated with increasing quantities of protein, a band of reduced mobility was observed. The apparent mobility further decreased upon addition of more protein, finally achieving a constant mobility after the addition of 2 μM protein. The absence of discrete species implied rapid equilibration between bound and free forms of the complexes, and consistent with this possibility, more discrete species were visualized when electrophoresis was performed more rapidly (at high voltage). […] The M. jannaschii RPA protein has a site size of 15 to 20 nucleotides (Kelly, T. J. et al., Proc Natl Acad Sci USA 95:14634-14639 (1998)) whereas the site size of E. coli SSB protein, depending on solution conditions, varies from 8 to 16 nucleotides per monomer. The apparent site size of SsoSSB protein is similar to the 7 nucleotide site size observed for phage T4 SSB protein, gp32. […] The observed band-retardation pattern is likely the result of a combination of this non-cooperative binding and rapid equilibration of protein-DNA complexes during electrophoresis.

| Molecule | fold lower affinity than ssDNA (competition) (fold lower affinity than ssDNA) [1] | binding result [2] |
| --- | --- | --- |
| linearized pUC19 | > 100 | – |
| B1 | – | binds |
